Assay results published in patent US8158579B2, “Fusion protein of an exendin to modified transferrin” (BioRexis Pharmaceutical Corporation, priority 2006, dated 2012).

Target: T1, rat GLP-1 receptor (Rattus norvegicus, UniProt P32301)
T1 construct: expressed in transfected cells; host or cells: CHO (CHO-GLP-1R)
T1 sequence (P32301 22-463): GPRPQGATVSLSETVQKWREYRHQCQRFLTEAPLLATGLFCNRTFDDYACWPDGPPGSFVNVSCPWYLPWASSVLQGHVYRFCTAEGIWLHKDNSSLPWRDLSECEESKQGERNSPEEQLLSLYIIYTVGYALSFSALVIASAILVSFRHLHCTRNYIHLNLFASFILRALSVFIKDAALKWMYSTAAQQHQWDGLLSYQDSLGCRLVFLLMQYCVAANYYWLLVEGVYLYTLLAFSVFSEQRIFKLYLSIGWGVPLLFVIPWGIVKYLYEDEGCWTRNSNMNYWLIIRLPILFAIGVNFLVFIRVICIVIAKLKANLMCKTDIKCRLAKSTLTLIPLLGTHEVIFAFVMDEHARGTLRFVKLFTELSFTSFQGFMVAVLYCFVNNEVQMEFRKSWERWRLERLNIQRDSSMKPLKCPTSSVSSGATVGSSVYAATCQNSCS
Test: cAMP potency assay in CHO cells transfected with the rat GLP-1 receptor (CHO-GLP-1R)
Type: cell-based
Conditions: cAMP accumulation in CHO-GLP-1R cells
Method: 96-well tissue culture plates were seeded with CHO-GLP-1R cells and cultured overnight. The following day, the cells were rinsed with Krebs-Ringer buffer (KRB) and incubated in KRB containing the phosphodiesterase inhibitor 3-isobutyl-1-methylxanthine (IBMX, 2 mM) to inhibit intracellular enzymes that process cAMP. Serial dilutions of test compounds and controls were prepared in KRB/IBMX and triplicate wells of cells were inoculated with samples and controls. After incubation, individual sample lysates were then assayed to measure the increase in intracellular cAMP levels using a competition-based fluorescent immunoassay (CatchPoint® cAMP Fluorescent Assay Kit, Molecular Devices Corp., Sunnyvale, Calif.).

Molecule	EC50 [nM]
pREX0659: exendin-4(1-30) fragment fused via (PEAPTD)2 linker to mTf (SEQ ID NO: 17) (protein) HGEGTFTSDLSKQMEEEAVRLFIEWLKNGGPEAPTDPEAPTDVPDKTVRWCAVSEHEATKCQSFRDHMKSVIPSDGPSVACVKKASYLDCIRAIAANEADAVTLDAGLVYDAYLAPNNLKPVVAEFYGSKEDPQTFYYAVAVVKKDSGFQMNQLRGKKSCHTGLGRSAGWNIPIGLLYCDLPEPRKPLEKAVANFFSGSCAPCADGTDFPQLCQLCPGCGCSTLNQYFGYSGAFKCLKDGAGDVAFVKHSTIFENLANKADRDQYELLCLDNTRKPVDEYKDCHLAQVPSHTVVARSMGGKEDLIWELLNQAQEHFGKDKSKEFQLFSSPHGKDLLFKDSAHGFLKVPPRMDAKMYLGYEYVTAIRNLREGTCPEAPTDECKPVKWCALSHHERLKCDEWSVNSVGKIECVSAETTEDCIAKIMNGEADAMSLDGGFVYIAGKCGLVPVLAENYNKADNCEDTPEAGYFAVAVVKKSASDLTWDNLKGKKSCHTAVGRTAGWNIPMGLLYNKINHCRFDEFFSEGCAPGSKKDSSLCKLCMGSGLNLCEPNNKEGYYGYTGAFRCLVEKGDVAFVKHQTVPQNTGGKNPDPWAKNLNEKDYELLCLDGTRKPVEEYANCHLARAPNHAVVTRKDKEACVHKILRQQQHLFGSNVADCSGNFCLFRSETKDLLFRDDTVCLAKLHDRNTYEKYLGEEYVKAVGNLRKCSTSSLLEACTFRRP	0.85
pREX0658: exendin-4(1-31) fragment fused via (PEAPTD)2 linker to mTf (SEQ ID NO: 17) (protein) HGEGTFTSDLSKQMEEEAVRLFIEWLKNGGPPEAPTDPEAPTDVPDKTVRWCAVSEHEATKCQSFRDHMKSVIPSDGPSVACVKKASYLDCIRAIAANEADAVTLDAGLVYDAYLAPNNLKPVVAEFYGSKEDPQTFYYAVAVVKKDSGFQMNQLRGKKSCHTGLGRSAGWNIPIGLLYCDLPEPRKPLEKAVANFFSGSCAPCADGTDFPQLCQLCPGCGCSTLNQYFGYSGAFKCLKDGAGDVAFVKHSTIFENLANKADRDQYELLCLDNTRKPVDEYKDCHLAQVPSHTVVARSMGGKEDLIWELLNQAQEHFGKDKSKEFQLFSSPHGKDLLFKDSAHGFLKVPPRMDAKMYLGYEYVTAIRNLREGTCPEAPTDECKPVKWCALSHHERLKCDEWSVNSVGKIECVSAETTEDCIAKIMNGEADAMSLDGGFVYIAGKCGLVPVLAENYNKADNCEDTPEAGYFAVAVVKKSASDLTWDNLKGKKSCHTAVGRTAGWNIPMGLLYNKINHCRFDEFFSEGCAPGSKKDSSLCKLCMGSGLNLCEPNNKEGYYGYTGAFRCLVEKGDVAFVKHQTVPQNTGGKNPDPWAKNLNEKDYELLCLDGTRKPVEEYANCHLARAPNHAVVTRKDKEACVHKILRQQQHLFGSNVADCSGNFCLFRSETKDLLFRDDTVCLAKLHDRNTYEKYLGEEYVKAVGNLRKCSTSSLLEACTFRRP	0.33
